No end group written: not given here.
T1: His-tagged P3028 (human, also: His-tag, terminus and sequence not given here)
T1 construct: used in solution in the PEPSCAN (rampo) ELISA; also called PGE73; His-tag-P3028; not shown: His tag
T1 peptide: VFDEFKPLVEEPQNLIK


Molecular target: T1, His-tagged P3028
Assay: PEPSCAN ELISA (rampo)
Description: After washing, the peroxidase substrate 2,2′-azine-di-3-ethylbenzthiazoline sulfonate (ABTS) and 2 μL of 3% H2O2 were added. The binding capacity of the mAb was measured as a color development at 405 nm (optical density, OD405). The color development was quantified with a charge-coupled device (CCD)—camera and an image processing system.
The OD405-values obtained by a CCD-camera was considered as raw data values (“rampo values,” “rampo units,” or “rampo scores”). […] First the CCD-camera made a picture of the card before peroxidase coloring and then again a picture after the peroxidase coloring. […] These values were copied into an excel file and labeled as a raw data file. One follow-up manipulation was allowed. Sometimes a well can contain an air-bubble resulting in a false-positive value. If manual inspection of the cards detect an air-bubble the value are set to 0 for that well.

Question: KKLDTTFVKLSLFTER [SEQ ID NO 318] was tested. Which “rampo score relative to the P28R control sample” value did it give?
Answer: ≥ 98 % of P28R control

Question: With KKLDTFFVKVSLFTER [SEQ ID NO 343] as the binder, how does the “rampo score relative to the P28R control sample” value read?
Answer: ≥ 98 % of P28R control

Question: How did the “rampo score relative to the P28R control sample” value turn out when KKLDTFFVKLSIFTER [SEQ ID NO 352] was run?
Answer: ≥ 98 % of P28R control

Question: KKLDTFFVKYSLFTER [SEQ ID NO 344] was tested. Which “rampo score relative to the P28R control sample” value did it give?
Answer: ≥ 98 % of P28R control

Question: How did the “rampo score relative to the P28R control sample” value turn out when KKLDTFFVKTSLFTER [SEQ ID NO 342] was run?
Answer: ≥ 98 % of P28R control

Question: For KKLDTFFGKLSLFTER (also called P28R with G at position 8) [SEQ ID NO 327], which RAMPO Score is on record?
Answer: ≥ 302 rampo units

Question: What about the “rampo score relative to the P28R control sample” value of the same binder?
Answer: ≥ 98 % of P28R control

Question: Which “rampo score relative to the P28R control sample” value does the source give for KKLDTFFVKPSLFTER [SEQ ID NO 338] here?
Answer: ≥ 98 % of P28R control

Question: KKLDTFFVKSSLFTER [SEQ ID NO 341] was tested. Which “rampo score relative to the P28R control sample” value did it give?
Answer: ≥ 98 % of P28R control

Question: Which “rampo score relative to the P28R control sample” value does the source give for KKLDTFFVKLQLFTER [SEQ ID NO 348] here?
Answer: ≥ 98 % of P28R control

Question: Which “rampo score relative to the P28R control sample” value does the source give for KKLDTFFVKLSLFGER [SEQ ID NO 377] here?
Answer: ≥ 98 % of P28R control

Question: Which “rampo score relative to the P28R control sample” value does the source give for KKLDTFFVKLSLWTER [SEQ ID NO 375] here?
Answer: ≥ 98 % of P28R control

Question: Which “rampo score relative to the P28R control sample” value does the source give for KKLDTFFVKLSLLTER [SEQ ID NO 366] here?
Answer: ≥ 98 % of P28R control

Question: For KKLDTFFVKLSLQTER [SEQ ID NO 370], which “rampo score relative to the P28R control sample” value is on record?
Answer: ≥ 98 % of P28R control

Question: Which “rampo score relative to the P28R control sample” value does the source give for KKLDTFTVKLSLFTER [SEQ ID NO 324] here?
Answer: ≥ 98 % of P28R control

Question: For KKLDTFFVRLSLFTER [SEQ ID NO 331], which “rampo score relative to the P28R control sample” value is on record?
Answer: ≥ 98 % of P28R control

Question: For KKLDTFFVKQSLFTER [SEQ ID NO 339], which “rampo score relative to the P28R control sample” value is on record?
Answer: ≥ 98 % of P28R control

Question: Which “rampo score relative to the P28R control sample” value does the source give for KKLDTFFVKLSHFTER [SEQ ID NO 351] here?
Answer: ≥ 98 % of P28R control

Question: Which “rampo score relative to the P28R control sample” value does the source give for KKLDTFSVKLSLFTER [SEQ ID NO 323] here?
Answer: ≥ 98 % of P28R control

Question: KKLDTFFVKLSSFTER [SEQ ID NO 357] was tested. Which “rampo score relative to the P28R control sample” value did it give?
Answer: ≥ 98 % of P28R control

Question: With KKLDTFFVKLSLPTER [SEQ ID NO 369] as the binder, how does the “rampo score relative to the P28R control sample” value read?
Answer: ≥ 98 % of P28R control

Question: For KKLDTFFVKLSTFTER [SEQ ID NO 358], which “rampo score relative to the P28R control sample” value is on record?
Answer: ≥ 98 % of P28R control

Question: KKLDTFFVKLSQFTER [SEQ ID NO 355] was tested. Which “rampo score relative to the P28R control sample” value did it give?
Answer: ≥ 98 % of P28R control

Question: With KKLDTFFVKGSLFTER [SEQ ID NO 334] as the binder, how does the “rampo score relative to the P28R control sample” value read?
Answer: ≥ 98 % of P28R control

Question: KKLDTFFVKLSLFMER [SEQ ID NO 381] was tested. Which “rampo score relative to the P28R control sample” value did it give?
Answer: ≥ 98 % of P28R control

Question: KKLDTFFVKLSLVTER [SEQ ID NO 374] was tested. Which “rampo score relative to the P28R control sample” value did it give?
Answer: ≥ 98 % of P28R control

Question: With KKLDTFFVKLSLHTER [SEQ ID NO 364] as the binder, how does the “rampo score relative to the P28R control sample” value read?
Answer: ≥ 98 % of P28R control

Question: For KKLDTFFVKLNLFTER [SEQ ID NO 347], which “rampo score relative to the P28R control sample” value is on record?
Answer: ≥ 98 % of P28R control

Question: For KKLDTVFVKLSLFTER [SEQ ID NO 319], which “rampo score relative to the P28R control sample” value is on record?
Answer: ≥ 98 % of P28R control

Question: KKLDTFFVKLMLFTER [SEQ ID NO 346] was tested. Which “rampo score relative to the P28R control sample” value did it give?
Answer: ≥ 98 % of P28R control

Question: With KKLDTFMVKLSLFTER [SEQ ID NO 321] as the binder, how does the “rampo score relative to the P28R control sample” value read?
Answer: ≥ 98 % of P28R control

Question: Which “rampo score relative to the P28R control sample” value does the source give for KKLDTFFVKLSLCTER [SEQ ID NO 362] here?
Answer: ≥ 98 % of P28R control

Question: With KKLDTFFVKLSLGTER [SEQ ID NO 363] as the binder, how does the “rampo score relative to the P28R control sample” value read?
Answer: ≥ 98 % of P28R control

Question: How did the “rampo score relative to the P28R control sample” value turn out when KKLDTFFVKLSLFIER [SEQ ID NO 379] was run?
Answer: ≥ 98 % of P28R control

Question: How did the “rampo score relative to the P28R control sample” value turn out when KKLDTFFVKLSAFTER [SEQ ID NO 350] was run?
Answer: ≥ 98 % of P28R control

Question: For KKLDTFFVKNSLFTER [SEQ ID NO 337], which “rampo score relative to the P28R control sample” value is on record?
Answer: ≥ 98 % of P28R control

Question: Which results are given for KKLDTFFLKLSLFTER (also called P28R with L at position 8) [SEQ ID NO 328]?
Answer: RAMPO Score: ≥ 302 rampo units; rampo score relative to the P28R control sample: ≥ 98 % of P28R control

Question: Which “rampo score relative to the P28R control sample” value does the source give for KKLDTFFVKFSLFTER [SEQ ID NO 333] here?
Answer: ≥ 98 % of P28R control

Question: Which “rampo score relative to the P28R control sample” value does the source give for KKLDTFFVKLSVFTER [SEQ ID NO 359] here?
Answer: ≥ 98 % of P28R control

Question: How did the “rampo score relative to the P28R control sample” value turn out when KKLDTFFVKLSLTTER [SEQ ID NO 373] was run?
Answer: ≥ 98 % of P28R control

Question: How did the “rampo score relative to the P28R control sample” value turn out when KKLDTFVVKLSLFTER [SEQ ID NO 325] was run?
Answer: ≥ 98 % of P28R control

Question: For KKLDTFLVKLSLFTER [SEQ ID NO 320], which “rampo score relative to the P28R control sample” value is on record?
Answer: ≥ 98 % of P28R control

Question: KKLDTFFVKLHLFTER [SEQ ID NO 345] was tested. Which “rampo score relative to the P28R control sample” value did it give?
Answer: ≥ 98 % of P28R control

Question: KKLDTFFPKLSLFTER (also called P28R with P at position 8) [SEQ ID NO 329] was tested. Which RAMPO Score did it give?
Answer: ≥ 302 rampo units

Question: And the “rampo score relative to the P28R control sample” value?
Answer: ≥ 98 % of P28R control

Question: Which “rampo score relative to the P28R control sample” value does the source give for KKLDTFFVKLSMFTER [SEQ ID NO 353] here?
Answer: ≥ 98 % of P28R control

Question: With KKLDTFFVKASLFTER [SEQ ID NO 332] as the binder, how does the “rampo score relative to the P28R control sample” value read?
Answer: ≥ 98 % of P28R control

Question: How did the RAMPO Score turn out when KKLDTFFFKLSLFTER (also called P28R with F at position 8) [SEQ ID NO 326] was run?
Answer: ≥ 302 rampo units

Question: What about the “rampo score relative to the P28R control sample” value of the same binder?
Answer: ≥ 98 % of P28R control

Question: How did the “rampo score relative to the P28R control sample” value turn out when KKLDTFFVKLSLRTER [SEQ ID NO 371] was run?
Answer: ≥ 98 % of P28R control

Question: With KKLDTFFVKLSLITER [SEQ ID NO 365] as the binder, how does the “rampo score relative to the P28R control sample” value read?
Answer: ≥ 98 % of P28R control

Question: For KKLDTFFVKLSRFTER [SEQ ID NO 356], which “rampo score relative to the P28R control sample” value is on record?
Answer: ≥ 98 % of P28R control

Question: With KKLDTFFVKLSNFTER [SEQ ID NO 354] as the binder, how does the “rampo score relative to the P28R control sample” value read?
Answer: ≥ 98 % of P28R control

Question: Which “rampo score relative to the P28R control sample” value does the source give for KKLDTFFVKLSLNTER [SEQ ID NO 368] here?
Answer: ≥ 98 % of P28R control

Question: How did the “rampo score relative to the P28R control sample” value turn out when KKLDTFFVKLSLMTER [SEQ ID NO 367] was run?
Answer: ≥ 98 % of P28R control

Question: For KKLDTFFVKLSLFHER [SEQ ID NO 378], which “rampo score relative to the P28R control sample” value is on record?
Answer: ≥ 98 % of P28R control

Question: Which results are given for KKLDTFFRKLSLFTER (also called P28R with R at position 8) [SEQ ID NO 330]?
Answer: RAMPO Score: ≥ 302 rampo units; rampo score relative to the P28R control sample: ≥ 98 % of P28R control

Question: How did the “rampo score relative to the P28R control sample” value turn out when KKLDTFFVKLSLATER [SEQ ID NO 361] was run?
Answer: ≥ 98 % of P28R control

Question: For KKLDTFFVKLSLFFER [SEQ ID NO 376], which “rampo score relative to the P28R control sample” value is on record?
Answer: ≥ 98 % of P28R control

Question: KKLDTFFVKISLFTER [SEQ ID NO 335] was tested. Which “rampo score relative to the P28R control sample” value did it give?
Answer: ≥ 98 % of P28R control

Question: With KKLDTFFVKLSLFLER [SEQ ID NO 380] as the binder, how does the “rampo score relative to the P28R control sample” value read?
Answer: ≥ 98 % of P28R control

Question: Which “rampo score relative to the P28R control sample” value does the source give for KKLDTFFVKRSLFTER [SEQ ID NO 340] here?
Answer: ≥ 98 % of P28R control

Question: How did the “rampo score relative to the P28R control sample” value turn out when KKLDTFFVKMSLFTER [SEQ ID NO 336] was run?
Answer: ≥ 98 % of P28R control

Question: How did the “rampo score relative to the P28R control sample” value turn out when KKLDTFFVKLSWFTER [SEQ ID NO 360] was run?
Answer: ≥ 98 % of P28R control

Question: How did the “rampo score relative to the P28R control sample” value turn out when KKLDTFFVKLSLSTER [SEQ ID NO 372] was run?
Answer: ≥ 98 % of P28R control

Question: KKLDTFQVKLSLFTER [SEQ ID NO 322] was tested. Which “rampo score relative to the P28R control sample” value did it give?
Answer: ≥ 98 % of P28R control

Question: KKLDTFFVKLTLFTER [SEQ ID NO 349] was tested. Which “rampo score relative to the P28R control sample” value did it give?
Answer: ≥ 98 % of P28R control
